Data set [1] concerns the target GST-Rpl22 (UniProt P67984 1-128). In words: EMSA; 5 mM MgCl2, E. coli tRNA competitor; 37.5 mM HEPES pH 7.9, 75 mM NaCl, 5 mM MgCl2, 0.1 mg/ml BSA, 8% glycerol, 1 ug E. coli tRNA, 5 nM 32P-RNA; temperature not stated. In general terms: A gel shift assay detects complexes by their altered migration in electrophoresis.
Data set [2] shares this target. The data set is described as above. The following applies: protein: recombinant; tags: GST; label: 5'-32P.

Like-named read-outs stand apart in the source and are kept apart here.

Turning to ACCAGAGUGAUGAUAUUGUGAGGGGAGACCCA (ssRNA) [Alox12 NBS], the binding result with GST-Rpl22 [1] was “no binding”.

GGUCCGUCCCGGGUACAAGUCCCGGGUGGUGA (structured_RNA) [EBER1]: in the data set with GST-Rpl22 [2], the binding result was “binds”.

As to GCUCAGUGCGGUGCUACCGACCCGAGGUCAAG (ssRNA) [EBER2], in the data set with GST-Rpl22 [2], the binding result is “no binding”.

Consider AUUUCCUCACCAUGUGUGUUUUCACAUGCACU (structured_RNA) [Alox12 BS2], for which the binding result with GST-Rpl22 [1] is listed as “binds”.

With AUCCUGCUGGAUGGAAUUCCAGCUAAUGUGAU (structured_RNA) [Alox12 BS1], the binding result in the data set with GST-Rpl22 [1] was “no binding”.
